Assay results as given in PMC11758950.

Biological target: T1, ELFN1-myc (mouse) (UniProt Q8C8T7)
T1 sequence: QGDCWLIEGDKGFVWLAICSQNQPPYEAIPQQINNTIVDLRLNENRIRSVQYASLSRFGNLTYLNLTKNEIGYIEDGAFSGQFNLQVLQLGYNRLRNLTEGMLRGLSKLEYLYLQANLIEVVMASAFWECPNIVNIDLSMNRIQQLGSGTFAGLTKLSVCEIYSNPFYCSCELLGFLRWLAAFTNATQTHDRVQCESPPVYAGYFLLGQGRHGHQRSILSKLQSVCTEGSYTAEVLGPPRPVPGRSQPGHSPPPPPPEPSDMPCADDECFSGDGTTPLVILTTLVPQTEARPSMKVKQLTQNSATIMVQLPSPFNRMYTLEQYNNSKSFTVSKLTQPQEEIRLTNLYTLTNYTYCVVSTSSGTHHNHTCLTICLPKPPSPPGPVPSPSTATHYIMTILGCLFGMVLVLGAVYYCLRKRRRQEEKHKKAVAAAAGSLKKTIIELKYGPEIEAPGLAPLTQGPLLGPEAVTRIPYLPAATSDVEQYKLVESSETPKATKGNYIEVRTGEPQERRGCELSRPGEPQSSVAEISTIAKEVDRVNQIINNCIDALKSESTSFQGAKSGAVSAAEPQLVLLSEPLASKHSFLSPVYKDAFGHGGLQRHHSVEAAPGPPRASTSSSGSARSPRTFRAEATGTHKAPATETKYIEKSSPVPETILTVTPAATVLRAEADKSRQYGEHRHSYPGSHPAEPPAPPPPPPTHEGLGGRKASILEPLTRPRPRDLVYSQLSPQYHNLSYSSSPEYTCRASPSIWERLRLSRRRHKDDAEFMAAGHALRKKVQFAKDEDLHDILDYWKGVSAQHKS

B1: ELFN1Δ452-Venus (domain or fragment)
chain: QGDCWLIEGDKGFVWLAICSQNQPPYEAIPQQINNTIVDLRLNENRIRSVQYASLSRFGNLTYLNLTKNEIGYIEDGAFSGQFNLQVLQLGYNRLRNLTEGMLRGLSKLEYLYLQANLIEVVMASAFWECPNIVNIDLSMNRIQQLGSGTFAGLTKLSVCEIYSNPFYCSCELLGFLRWLAAFTNATQTHDRVQCESPPVYAGYFLLGQGRHGHQRSILSKLQSVCTEGSYTAEVLGPPRPVPGRSQPGHSPPPPPPEPSDMPCADDECFSGDGTTPLVILTTLVPQTEARPSMKVKQLTQNSATIMVQLPSPFNRMYTLEQYNNSKSFTVSKLTQPQEEIRLTNLYTLTNYTYCVVSTSSGTHHNHTCLTICLPKPPSPPGPVPSPSTATHYIMTILGCLFGMVLVLGAVYYCLRKRRRQEEKHKK
B1 gave a cell membrane enrichment of ELFN1Δ452-Venus (membrane against proximal cytosolic pixel intensity) with co-expression of ELFN1-myc (median 92.50% under control conditions) of 129% and a percentage of cells with membrane enrichment of ELFN1Δ452-Venus when co-expressed with ELFN1-myc (0.000 without ELFN1-myc); live-cell confocal microscopy, HEK293 of 33.4%.
